Results from the supplement of paper PMC7877785.
± gives the uncertainty stated by the source.

Assay: self-splicing fitness, log relative to wild type (ln ratio); higher = more splicing; Tetrahymena group I intron in knt gene, E. coli kanamycin selection, DiMSum; sequences stand for … in CUCUCU…GGAGGGAAAAGUUAUCAGGCAUGCACCUGGUAGCUAGUCUUUAAACCAAUAGAUUGCAUCGGUUUAAAAGGCAAGACCGUCAAAUUGCGGGAAAGGGGUCAACAGCCGUUCAGUACCAAGUCUCAGGGGAAACUUUGAGAUGGCCUUGCAAAGGGUAUGGUAAUAAGCUGACGGACAUGGUCCUAACCACGCAGCCAAGUCCUAAGUCAACAGAUCUUCUGUUGAUAUGGAUGCAGUUCACAGACUAAAUGUCGGUCGGGGAAGAUGUAUUCUUCUCAUAAGAUAUAGUCGGACCUCUCCUUAAUGGGAGCUAGCGGAUGAAGUGAUGCAACACUGGAGCCGCUGGGAACUAAUUUGUAUGCGAAAGUAUAUUGAUUAGUUUUGGAGUACUCGUGGUCG
Summary of the method: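 Colonies from six replicate transformations of E. coli BL21(DE3) were pooled and amplicon-sequenced on an Illumina HiSeq 2500. The library placed an intron with all eight P1ex-region nucleotides randomised inside the knt kanamycin-resistance gene on pET-22b(+), and cells grew overnight at 37°C or 30°C on LB agar with or without 25 μg/mL kanamycin (plus 100 μg/mL carbenicillin, 50 μM IPTG, 0.2% rhamnose). Fitness is the DiMSum error-weighted combination of wild-type-normalised replicate fold changes, kanamycin versus none.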

| Sequence | self-splicing fitness (ln) (30 °C) | self-splicing fitness (ln) (37 °C) |
| --- | --- | --- |
| CUGCAGCAAUAUUACGGUGA | -2.37 ± 0.12 | -0.923 ± 0.099 |
| CUGCAGCAAUAUUACGGUUU | -3.11 ± 0.13 | -1.43 ± 0.12 |
| CUGCAGCAAUAUUACGUAAA | -3.28 ± 0.14 | -1.19 ± 0.14 |
| CUGCAGCAAUAUUACGUAAC | -3.31 ± 0.26 | -2.38 ± 0.29 |
| CUGCAGCAAUAUUACGUACA | -2.96 ± 0.29 | -1.43 ± 0.19 |
| CUGCAGCAAUAUUACGUGGU | -3.34 ± 0.18 | -3.71 ± 0.31 |
| CUGGAGCAAUAUUACGAAGU | -2.22 ± 0.37 | -2.38 ± 0.43 |
| CUGGAGCAAUAUUACGAGCA | -2.32 ± 0.46 | -2.63 ± 0.42 |
| CUGGAGCAAUAUUACGAGGC | -2.02 ± 0.4 | -0.672 ± 0.47 |
| CUGGAGCAAUAUUACGAGGG | -2.67 ± 0.24 | -2.08 ± 0.34 |
| CUGGAGCAAUAUUACGAUUA | -2.56 ± 0.27 | -1.07 ± 0.26 |
| CUGGAGCAAUAUUACGCAGG | -3.11 ± 0.23 | -2.36 ± 0.2 |
| CUGGAGCAAUAUUACGCCUC |  | -1.07 ± 0.47 |
| CUGGAGCAAUAUUACGCGAG | -3.24 ± 0.23 | -2.47 ± 0.26 |
| CUGGAGCAAUAUUACGCGCU | -3.54 ± 0.47 |  |
| CUGGAGCAAUAUUACGCGUG | -3.27 ± 0.15 | 0.32 ± 0.12 |
| CUGGAGCAAUAUUACGCUGU |  | -3.04 ± 0.48 |
| CUGGAGCAAUAUUACGGAGG |  | -2.18 ± 0.36 |
| CUGGAGCAAUAUUACGGCAG | -2.77 ± 0.15 | -1.94 ± 0.16 |
| CUGGAGCAAUAUUACGGCCU | -2.88 ± 0.38 | -1.85 ± 0.3 |

| Sequence | self-splicing fitness (ln) (30 °C) | self-splicing fitness (ln) (37 °C) |
| --- | --- | --- |
| CUGGAGCAAUAUUACGGGCG | -1.16 ± 0.12 | -0.434 ± 0.12 |
| CUGGAGCAAUAUUACGGUGG | -3.55 ± 0.14 | -1.93 ± 0.12 |
| CUGGAGCAAUAUUACGGUGU | -4.16 ± 0.36 | -2.02 ± 0.2 |
| CUGGAGCAAUAUUACGUACG | -0.531 ± 0.089 | 0.504 ± 0.12 |
| CUGGAGCAAUAUUACGUCAC | -2.63 ± 0.39 | -2.53 ± 0.39 |
| CUGGAGCAAUAUUACGUGAA | -3.42 ± 0.22 | -2.01 ± 0.16 |
| CUGUAGCAAUAUUACGAAUA | -2.54 ± 0.37 | -2.82 ± 0.48 |
| CUGUAGCAAUAUUACGACCG | -0.99 ± 0.34 | 0.0218 ± 0.25 |
| CUGUAGCAAUAUUACGAGUG | -0.807 ± 0.07 | 0.314 ± 0.11 |
| CUGUAGCAAUAUUACGAUCG | 0.206 ± 0.16 | 0.548 ± 0.21 |
| CUGUAGCAAUAUUACGAUGC | -2.62 ± 0.17 |  |
| CUGUAGCAAUAUUACGCAUG | -1.06 ± 0.1 | -0.55 ± 0.13 |
| CUGUAGCAAUAUUACGCGCA | -2.23 ± 0.39 | -2.52 ± 0.41 |
| CUGUAGCAAUAUUACGCGUG | -1.41 ± 0.1 | -0.0484 ± 0.12 |
| CUGUAGCAAUAUUACGCUAU |  | -0.73 ± 0.29 |
| CUGUAGCAAUAUUACGCUGU | -3.78 ± 0.36 | -2.53 ± 0.27 |
| CUGUAGCAAUAUUACGGAGA | -2.5 ± 0.21 | -3.56 ± 0.34 |
| CUGUAGCAAUAUUACGGAGC |  | -2.55 ± 0.49 |
| CUGUAGCAAUAUUACGGCAG | -3.85 ± 0.33 | -1.32 ± 0.24 |
| CUGUAGCAAUAUUACGGCUC | -2.55 ± 0.19 | -2.13 ± 0.29 |
